Data set [1] concerns the molecule itself. Briefly: crystal structure; EhRNaseIII229, sitting drop, 16 °C, 1.6 M (NH4)2SO4, 0.02 M MgCl2, 0.05 M Tris-HCl pH 7.5; apo (1.90 Å) and soaked with 10 mM MnCl2 (2.05 Å); P212121, molecular replacement.
Data set [2] has as its target T1, EhRNaseIII194 (Entamoeba histolytica, UniProt C4LU64 2-194).
T1 sequence: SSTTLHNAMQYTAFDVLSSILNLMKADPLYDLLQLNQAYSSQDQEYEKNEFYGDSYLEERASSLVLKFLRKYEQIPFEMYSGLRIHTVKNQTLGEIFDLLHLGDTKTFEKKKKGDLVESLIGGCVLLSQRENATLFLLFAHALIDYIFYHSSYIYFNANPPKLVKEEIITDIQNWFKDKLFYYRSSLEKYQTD
Put plainly: EMSA; 5 mM Mg2+; binds at 1e-4 M; EMSA (1x): 30 mM Tris-HCl pH 7.5, 30 mM NaCl, 5 mM MgCl2, 1 mM DTT, 0.1 mM EDTA, 5% glycerol; room temperature 10 min then ice 20 min; 6% native PAGE, 0.5x TBE. The settings on record: protein: recombinant; tags: His-Sumo removed by Ulp1; chain copies: 2; blunt, 70 bp. On the technique in general: Mobility shift assays separate free from complexed probe on a gel.

For data set [3], the target named is T2, EhRNaseIII256 (full-length EhRNaseIII) (Entamoeba histolytica, UniProt C4LU64 2-256).
T2 sequence: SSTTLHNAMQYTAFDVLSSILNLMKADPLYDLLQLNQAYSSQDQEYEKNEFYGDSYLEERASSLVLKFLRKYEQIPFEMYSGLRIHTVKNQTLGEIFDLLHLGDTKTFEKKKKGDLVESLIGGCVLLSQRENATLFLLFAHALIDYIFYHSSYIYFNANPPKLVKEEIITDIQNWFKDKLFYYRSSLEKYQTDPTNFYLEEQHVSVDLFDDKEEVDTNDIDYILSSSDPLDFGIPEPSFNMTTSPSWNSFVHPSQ
Briefly: EMSA; 5 mM Mg2+; up to 1e-3 M; EMSA (1x): 30 mM Tris-HCl pH 7.5, 30 mM NaCl, 5 mM MgCl2, 1 mM DTT, 0.1 mM EDTA, 5% glycerol; room temperature 10 min then ice 20 min; 6% native PAGE, 0.5x TBE. The settings on record: protein: recombinant, tags: His-Sumo removed by Ulp1, chain copies: 2, blunt.

Data set [4] concerns the target T3, EhRNaseIII229 (Entamoeba histolytica, UniProt C4LU64 2-229).
T3 sequence: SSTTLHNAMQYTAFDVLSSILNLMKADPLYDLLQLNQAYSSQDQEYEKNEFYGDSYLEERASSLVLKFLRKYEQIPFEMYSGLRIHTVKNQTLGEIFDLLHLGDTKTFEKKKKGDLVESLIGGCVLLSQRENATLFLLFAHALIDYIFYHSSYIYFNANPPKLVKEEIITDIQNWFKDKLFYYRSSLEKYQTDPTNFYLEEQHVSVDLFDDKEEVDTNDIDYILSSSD
Described as above. The settings on record: protein: recombinant, tags: His-Sumo removed by Ulp1, chain copies: 2, blunt.

Data set [5] deals with T2, EhRNaseIII256 (full-length EhRNaseIII). Put plainly: EMSA; 5 mM Mg2+; EMSA (1x): 30 mM Tris-HCl pH 7.5, 30 mM NaCl, 5 mM MgCl2, 1 mM DTT, 0.1 mM EDTA, 5% glycerol; room temperature 10 min then ice 20 min; 6% native PAGE, 0.5x TBE. The settings on record: protein: recombinant, tags: His-Sumo removed by Ulp1, chain copies: 2, blunt.
Data set [6] addresses T3, EhRNaseIII229. The data set is described as above. The settings on record: protein: recombinant; tags: His-Sumo removed by Ulp1; chain copies: 2; blunt, 25 bp.
Data set [7] has as its target T1, EhRNaseIII194. Put plainly: EMSA; 5 mM Mg2+; up to 1e-3 M; EMSA (1x): 30 mM Tris-HCl pH 7.5, 30 mM NaCl, 5 mM MgCl2, 1 mM DTT, 0.1 mM EDTA, 5% glycerol; room temperature 10 min then ice 20 min; 6% native PAGE, 0.5x TBE. The settings on record: protein: recombinant; tags: His-Sumo removed by Ulp1; chain copies: 2; blunt, 25 bp.
Data set [8] concerns the molecule itself. Briefly: crystal structure; SeMet-EhRNaseIII194, hanging drop, 16 °C, 1.26 M (NH4)2SO4, 0.1 M Hepes pH 7.8; P212121, SAD phasing, 2.10 Å.
The target of data set [9] is T1, EhRNaseIII194. Put plainly: EMSA; 5 mM Mg2+; shift at 5e-5 M; EMSA (1x): 30 mM Tris-HCl pH 7.5, 30 mM NaCl, 5 mM MgCl2, 1 mM DTT, 0.1 mM EDTA, 5% glycerol; room temperature 10 min then ice 20 min; 6% native PAGE, 0.5x TBE. The settings on record: protein: recombinant; tags: His-Sumo removed by Ulp1; chain copies: 2; blunt, 100 bp.
In data set [10] the target is T3, EhRNaseIII229. Put plainly: EMSA; 5 mM Mg2+; almost complete shift at 3e-4 M; EMSA (1x): 30 mM Tris-HCl pH 7.5, 30 mM NaCl, 5 mM MgCl2, 1 mM DTT, 0.1 mM EDTA, 5% glycerol; room temperature 10 min then ice 20 min; 6% native PAGE, 0.5x TBE. The settings on record: protein: recombinant; tags: His-Sumo removed by Ulp1; chain copies: 2; blunt, 100 bp.

Broadly, the stoichiometry N is the number of molecules, sites or subunits per partner or assembly. By Kd is commonly meant the free concentration of one partner at which half of the binding sites on the other are occupied at equilibrium, for simple one-to-one binding.

B1: EhRNaseIII229 (EhRNaseIII aa 1-229) (domain or fragment, Entamoeba histolytica, UniProt C4LU64 1-229, looked up)
chain: MSSTTLHNAMQYTAFDVLSSILNLMKADPLYDLLQLNQAYSSQDQEYEKNEFYGDSYLEERASSLVLKFLRKYEQIPFEMYSGLRIHTVKNQTLGEIFDLLHLGDTKTFEKKKKGDLVESLIGGCVLLSQRENATLFLLFAHALIDYIFYHSSYIYFNANPPKLVKEEIITDIQNWFKDKLFYYRSSLEKYQTDPTNFYLEEQHVSVDLFDDKEEVDTNDIDYILSSSD
notes: EhRNaseIII, the only RNaseIII protein of Entamoeba histolytica (256 aa), aa 1-229 (CTR truncated); Cloned from E. histolytica cDNA into pET28-Sumo; Residues after about 195 were disordered in the crystal; also called EhRNase229; source: E. coli BL21(DE3), purified (HisTrap, Ulp1 digestion, HisTrap, HiTrap Q, Superdex 75); not shown: His-Sumo, N-terminal, cleaved
As to B1, the “stoichiometry N” value in data set [1] is 2.

B2: RNA70 (dsRNA)
RNA 1: GGGAGAAACGCGGCCUCUUCUUAUUUAUGGCGACAUGUUGUGCCACAUAUUGAGCCAGUAGCGCUCUCCC
RNA 2: GGGAGAGCGCUACUGGCUCAAUAUGUGGCACAACAUGUCGCCAUAAAUAAGAAGAGGCCGCGUUUCUCCC
Take B2: the binding result in data set [2] is reported as “binds”; in [3] (70 bp) it was “no binding”; in data set [4] (70 bp) it was “no binding”.

B3: RNA50 (dsRNA)
RNA 1: GGGAGAAACGCGGCCUCUUCUUAUUUAUGGCGACAUGUUGUGCCUCUCCC
RNA 2: GGGAGAGGCACAACAUGUCGCCAUAAAUAAGAAGAGGCCGCGUUUCUCCC
Consider B3, for which the binding result in data set [3] (50 bp) and in [4] (50 bp) was “no binding” throughout.

B4: RNA25 (dsRNA)
RNA 1: GGGAGAAACGCGGCCUCUUUCUCCC
RNA 2: GGGAGAAAGAGGCCGCGUUUCUCCC
As for B4, the binding result in [5] (25 bp), in data set [6] and in data set [7] was “no binding” each time.

B5: SeMet-EhRNaseIII194 (selenomethionine-labeled EhRNaseIII, aa 1-194) (domain or fragment, Entamoeba histolytica, UniProt C4LU64 1-194, looked up)
chain: MSSTTLHNAMQYTAFDVLSSILNLMKADPLYDLLQLNQAYSSQDQEYEKNEFYGDSYLEERASSLVLKFLRKYEQIPFEMYSGLRIHTVKNQTLGEIFDLLHLGDTKTFEKKKKGDLVESLIGGCVLLSQRENATLFLLFAHALIDYIFYHSSYIYFNANPPKLVKEEIITDIQNWFKDKLFYYRSSLEKYQTD
modifications: selenomethionine substituted (Se-Met) for methionine
notes: EhRNaseIII, the only RNaseIII protein of Entamoeba histolytica (256 aa), aa 1-194 (CTR truncated); Cloned from E. histolytica cDNA into pET28-Sumo; also called EhRNase194; SeMet-RNaseIII194; source: E. coli BL21(DE3) in M9 medium with Se-Met, purified (HisTrap, Ulp1 digestion, HisTrap, HiTrap Q, Superdex 75); not shown: His-Sumo, N-terminal, cleaved
Consider B5, for which the “stoichiometry N” value in data set [8] is 2.

B6: RNA100 (dsRNA)
RNA 1: GGGAGAAACGCGGCCUCUUCUUAUUUAUGGCGACAUGUUGUGCCACAUAUUGAGCCAGUAGCGCGGUGUAUUAUACCAGACCUUAUUGGUAUGGUCUCCC
RNA 2: GGGAGACCAUACCAAUAAGGUCUGGUAUAAUACACCGCGCUACUGGCUCAAUAUGUGGCACAACAUGUCGCCAUAAAUAAGAAGAGGCCGCGUUUCUCCC
As to B6, the binding signal in data set [9] was ~6 fold affinity vs EhRNaseIII256 (2-fold vs EhRNaseIII229); in [10] it was > 2 fold affinity vs EhRNaseIII256 (at least). Besides, the Kd in data set [5] (100 bp) is approximately 600 µM.

The record behind these values is paper PMC5357909, “Structural and functional studies of a noncanonical Dicer from Entamoeba histolytica” (Scientific Reports, 2017).
